Broadly, the Kd is a measure of binding affinity in units of concentration.

The target of this test is soluble four-domain CD4 (UniProt P01730 26-390). Description: ITC. (In general: ITC needs no label: the signal is the heat of the interaction.)

B1: 16055 SOSIP.663 trimer, negatively selected (flow-through of the GE136 column) (other)
chain 1: not shown
chain 2: AVGLGAVIFGFLGAAGSTMGAASITLTVQARQLLSGIVQQQSNLLKAPEAQQHLLQLTVWGIKQLQTRVLAIERYLKDQQLLGIWGCSGKLICCTAVPWNSSWSNKSHDEIWGNMTWMQWDREISNYTNTIYRLLEDSQNQQEQNEKDLLAL
As for B1, the affinity, expressed as Kd, was 6 nM. This counts as single-digit nanomolar.

The record behind these values is patent US20170035877A1 (published 2017).
